This is an account of results in publication PMC6068260, “Functional Analysis of a Carboxylesterase Gene Associated With Isoprocarb and Cyhalothrin Resistance in Rhopalosiphum padi (L.)” (Frontiers in Physiology, 2018).

Substrate in the data set: CC(=O)Oc1cccc2ccccc12
In words: purified protein. It counts as biochemical, Rhopalosiphum padi. As to conditions: Tris-HCl buffer, 3 mM Fast Blue RR salt, 5 min.

B1: RpCarE (Rhopalosiphum padi) (protein)
chain: MEVVIEQGVLKGVQNKTLLSNKPYVSFLGIPYAKPPVNDLRFKPPVKHPGWSGILKAISERDRCMQYAFVANDIIGSEDCLYLNVLVPQNGLNEKLAVMIFIHGGAFNYGCGSVNEQSPDYLLDENVIVITLNYRLNALGFLNLDIDECPGNMGLKDQLFAIKWIKANIAAFGGDVNNITIFGESAGSVSVHYHTMSPQSTGLFQKAIMQSGCAFNPWALNENHRVAAFKLAKNLGCLSSDPNEIVKYLRNVSAIDLVKETKFKDDNGFLDYKFVPSIESDMVSDRFLPAHPKTLATIASPVPVIVGLNSMEGIIALSEYRLSKFSDLQITDEISKLFNNQYSTEVISKIKDFYFNKCNNNCEIAKLENICHLHSDVFFVKDFYRGFDHFLKQNVTPVYIYEFKFDGELNAIKNWIFATRPVLRHALKGACHADEIYYLFRNNLSGVVPKPNSPELEMCKAMGKMWSNFAKTGDPNSLDLSFKWNYASASDTKYLSIDGDRTQMTQGMINNNRSRFWKDLIKESIV
notes: pET-28a His6-tag fusion (tag kept), E. coli BL21(DE3); catalytic triad S185-E312-H432
The Km is the substrate concentration at which the rate is half of its maximum. As a reminder, the kcat is the maximal rate divided by the concentration of active sites. A word on the kcat/Km: it is the second-order rate constant that governs catalysis at low substrate concentration. Regarding B1, the Michaelis-Menten constant (Km) worked out at 42.98 ± 6.73 µM, the kcat was 5.50 ± 0.28 s⁻¹ and the specificity constant (kcat/Km) turned out to be 130000 M⁻¹ s⁻¹.
